Test results published in a protein production outcome set (Wang et al. 2014).

Experiment: label from the status in PepcDB records
In the case of “MGRRPSSSHKVSSGKISARPSLHCERGGFMRKTFLAPLTVALCALAAAQTPPPAPIDRPLPAPEPPATATVTRNEPTPQQFTPDKLARLKVPAGFKVSVMATELGNARMLHVMPDGGIYLSRRQNGDIWYLKDVNGDGTIDATERRRVADQLKLVHGIDTRQGKLYAVGEKTIWVMDIARDGTLSVPRVFADNFPDAGQHPARQLGWGPDGYLYASFGATNNDAPTQNPEEATILRIRPDGQVREVYARGLRHTIGFGWHPVTKTFYGMDQGSDWHGDNIPPEELNVIKRGKNYGWPFCYGAKNPDPFVNVANIPGKITKAEYCATTEPSTLNYTAHAAAIALKFYTGTQFPAEFRNDAFVTFRGSWNRNEPSGYEVARVVFDAQNKPEKIEPFVTGFVYQEGGEWKQFGRVAGLAVYTDGSLLFTDDQSGVIYRVQYVGGQK”, the protein production is reported as “failed”.
For “MGRTSKDKRDVYYRLAKENGWRARSAFKLLQLDKEFQLFQGVTRAVDLCAAPGSWSQVLSQKIGGQGSGHVVAVDLQAMAPLPGVVQIQGDITQLSTAKEIIQHFKGCPADLVVCDGAPDVTGLHDVDEYMQAQLLLAALNIATHVLKPGGCFVAKIFRGRDVTLLYSQLQVFFSSVLCAKPRSSRNSSIEAFAVCQGYDPPEGFIPDLSKPLLDHSYDPDFNQLDGPTRIIVPFVTCGDLSSYDSDRSYPLDLEGGSEYKYTPPTQPPISPPYQEACTLKRKGQLAKEIRPQDCPISRVDTFPQPLAAPQCHTLLAPEMEDNEMSCSP”, the protein production was “failed”.
With “MGRVIVLGEVLLVGLRFVFVLLIYIFVWHVLRLMYLELGLAPAQSSRKRPVLVVLDAKNGGAKRGESYPLGENISIGRDNHNDIIINDSHVSARHAVITRQGREWKILDLDSTNGTYVNGLRLTGPHSLRPGDKISIGGVTFKVGWEDASRSPFPYRTGAAR” the protein production was “failed”.
With “MGSFDDVIGNHQADTAMIVQISADRKEINLVSIPRDSLVDVPQCETSKGTIPAQYNVMFNSIFAGAYKTGGDLSSAASCTLNAVNSLTGLNIQNFIVVDFAGLVKMIDSVGGVDLCIPQNVNDPYTGLNLDKGMHHLDGVAATQYARIRHGIGDGSDTSRTTRQQYLIKQLMSEALSKNLFTDTAQLYQLAKSALKSLNISQGMADTAALAGLAMSLKNFTMTNLQTQTVPVVPAPSDPNRSVWTDEADNLWEKMRAGKPIFDTADSNSGGSSDTSSDNSASSDDSGTTDSNQSDTTAETPDPVTGLITKSDGTLVDPSTGGTVDPDDGSIHDATTGQYIGLADRYLNATVCAVPAKNLEHHHHHH” the protein production was “not failed”.
In the case of “MGSKKQIRVQNISHDNIYSGLRCFVDGSWKGSDKFSGLGWFCRSSNGDSPTMGAANLRRSLYPLHTEVEALLWSMKCMIGADNQEVAFFTDYSDLVKMVSSPTE”, the protein production is reported as “failed”.
In the case of “MGSLMSGWDSRVRDPKSVRRCKSLTREEIDTFWKTKKKNEEEEHVQAFSKLVTQEGAQSQAKEKKSVDDLFENQSKSSGWWRKTYWAFLNEPREEEGRPNNYVSQFKVAHIAKIAGS”, the protein production is reported as “failed”.
In the case of “MGSRLAESSTPMKACEEVGRPSFTSEQTASSCVIDVRDNARISSASSDGTEVESVGTAIKGELDRTARPTFTAGKNKSVRFECDLDQSNSSNSSENGSSRKPEMGGKICFTVSSPNPTPLKLSDEMQTPGTIYPANMESGGRGRPRIRSQFVHSVSNIMENASLYKVYKDSHEGLDYEEQIEAETPSSETYGEKVEESSDEKLSKFEASFSPWLNQINENIAALNERTPGVGVITPGDRPIIGLVAAQWIENEQTEISPKMWDGNGIPNSTTKYKEDQKVSWHATPFEVRLEKALSEEGGQSLFPQRKLEVMMEEVEGDTDISQLHHSVQPNSVVSF”, the protein production is reported as “failed”.
In the case of “MGSSHHHHHHSSGLVPRGSHMFKLTPAAAEQVLKAAKQGGTEGMCLRLAAGRNPDGSIDYRMGFDDLTEDDIRLTSEGVEIVIAPDYVSLLDQTTLDYVELEPGQFHFIFLNPRDPTYRPPSGG”, the protein production is reported as “not failed”.
With “MGSSHHHHHHSSGRENLYFQGMTKNTRFSPEVRQRAVRMVLESQGEYDSQWATICSIAPKIGCTPETLRVWGRQHERDTGGGDGGLTTAERQRLKEPERENRELRRSNDILRQASAYFAKAEFDRLWKK” the protein production was “not failed”.
In the case of “MGSSSSFSSSSSKLLFRQLFENESSTFTYLLADVSHPDKPALLIDPVDKTVDRDLKLIDELGLKLIYAMNTHVHADHVTGTGLLKTKLPGVKSVISKASGSKADLFLEPGDKVSIGDIYLEVRATPGHTAGCVTYVTGEGADQPQPRMAFTGDAVLIRGCGRTDFQEGSSDQLYESVHSQIFTLPKDTLIYPAHDYKGFEVSTVGEEMQHNPRLTKDKETFKTIMSNLNLSYPKMIDVAVPANMVCGLQDVPSQAN”, the protein production is reported as “not failed”.
With “MGSSSYAVIPGAAPRSGRRSIRAVLVLALTAGVATVVPAAQADTSTPAAAPVAAKPYMGWSSWSMQSSKYPGLNPDGDYSYLTEANVLKQTDALASKLKKYGYDHVNIDAGWWMDKNWKTQFDQYGRQTPDPVRFPHGMKSVADHIHSKGLKAGIYLPVGLEKGAYGDGKTPISKAPGCTTADIVYSDLRTTNGWDNAYKIDFDKSCAQKYIDSQAQMFADWGYDFLKLDGVGPGSFKSGDNYNNVADVAAWQKAIAATGRPIHLELSWSLDIGHAADWKKYSNGWRIDTDIECYCNTLVTWENSVNDRWDDAPAWSSKAGPGGWNDLDAIDVGNGEMDGLTKAERQSYMTLWAINKSPLFTGDDLTKLDSYGVSLLTNKEVIAVDQNTSPVARPVTPVGDQQVWGTKNADGSYTVALFNLGDSPASVTAHWASFGFTGNASVRDLWNKTNLGTHKNKITEALPAHGSRLFTIKPGGGTLATTGYEAEAAANTLSGNASVGGCDACSGGKKVGNLYTGGKLRINDITVKKDGIYTVKVAYVSGDPRSVTVLSNSGNGTSLKFPSTGDWSTAETVSVQLALKAGSNTITFDSGSGYAPDIDRIVVPQSV” the protein production was “failed”.
In the case of “MGTAMRSVAWGLAIALWPIAVWAENPEDLQRLLTTRQCERCDLQDSGLVLARLSGARLTGSNLQRANLSGADLSGADLRQTDLRGASLQRANLAGANLTGARLDGVDLREAWLTEAILTPQQLALAHIQGAQGLDVTALPFERYQAWGIEAIQAGRFERAISYFDLALQRNPKSASTYLSRAIAYQGLGRSEQAIADAQAAEQLYKSQQNPEGEKRSQELRTTIVAAQERVASSGSNGGNGGGSAALAVLTGIVQGVLPFLLGFPF”, the protein production is reported as “failed”.
In the case of “MGTEERKARQKRYPPVLQDSGERPRRRFPYVSRSFVPSVFTVMNMVSGYVSIVMAGEGSFVIAGWLIFLAAFFDTIDGFVARLTNSSSEFGVELDSLSDLVSFGAAPAYLVYKFGLEHIGMPWGLLLSSLLMVGSGLRLARFNINLIDYHKDSFSGLPTPAQAMTVASFVLWMSVEPLFTELALQKVLMVLSVLLATLMVSKVNYDALPKPTLESFRSHPVQMILYVIAIFCVLVFQAKAFFVAMLLYILLGIVRSLTRTVQEWQL”, the protein production is reported as “failed”.
In the case of “MGTKRIGILTSGGDCPGLNAVIRAVVKASALKGWEVYGIPYGTDGFVEVAHGKYQAEDLLLTKHGYALPGMLKGLDVLQFLSGSVLGSLSKGHPEQPAIAEAILKGYAILDLEALIVIGGDGSLDIIYDLAQKGNWHIIAIPKTIDNDVPFTDLAVGFSTAVDIVTQALYDLTFTAASHERIIIVQVMGRDAGHLTLHAGIAGGADIILIPEITPCLTSEIIRNCCYQLMNLRKSGRHFALIVISEGVHDQNNKKNKHIADYLAEEISETSQHLCDIKDPAFCDLISLDIRATTLGHLQRSGTPLSFDRLLATVFGIRAVELIEQEIYDQVVIWRSGKVEHADLKPIISIIKECHQENRCPFPVDRDGFMVKTAKSLGIYLGED”, the protein production is reported as “failed”.
In the case of “MGTLTCKDLNHKYRDTTMYKQQQIKQWFCGLSSITCQHISDWQKPHLGVLCAASAFLVLAAPVVNLPGSKLLAQTPISRDLETASFYQQGVTRYNRSDWQGAENAFRQALQREPNLAMARAYLGNIYLMQNRLDVAVQEYGEAIRLNPNLGETYYNLGLALQQQGKKEGAITAYRQALVIDPRRVEAYYNLGLVLYEQGLLQEAIAAYQDAVNLEPSKINAHHNLAIALQQTGKMEEAIVAYREVLKLDPKNAAAYSSLGSLMAMQGRPEEAIAAYTQAVRQDPKNALAYYNLGITLYNQGELQKASNAFKRAQEEYSQQGNLEQTEKTEQLMQQVAQKIEEQKLQQRQASTPKPTDNSTNNLLEKLTQLTAPKEQPANSGAVPVSDEQKQFPPIFPNTNSR”, the protein production is reported as “failed”.
In the case of “MGTMNVVGLAIYLYAGFLSFIFGFISLYAFIKYSKLERKNKEIIYVYVDNLKNFSPYMFYSILLTFTIVFVIFALFICFVFNFDLYLGLTMLFSYFLIIYLFCFKKYRVEIYKDGFYGVFQN”, the protein production is reported as “failed”.
With “MGTPNDQAVLQAIFNPDTPFGDIVGLDLGEEAEKEEREEDEVFPQAQLEQSKALELQGVMAAEAGDLSTALERFGQAICLLPERASAYNNRAQARRLQGDVAGALEDLERAVELSGGRGRAARQSFVQRGLLARLQGRDDDARRDFERAARLGSPFARRQLVLLNPYAALCNRMLADMMGQLRRPRDSR” the protein production was “failed”.
For “MGTTVMVPIYTSTAAASPYSINLASMPPKTVLSKGDEEIAAIALPRQPKFYDLKTADGIPYSHIALLHSNNVLATTVQQTCIRYRDESTVCQFCAIEKSLDAGRTITRKLPEQLAEVTEAAVRLDGIEQVIMTTGTPNSGDRGAAYLTKCAAAIKARVNIPIQAQCEPPDDFIWFERMKAAGVDSLGMHLEAVDPDVRAKIMPGKAEVPVSYYYEAYEAAVKVFGWGQVSTYLLAGLGDSFETLVEASEKLVNMGVYPFVVPFVPISETPLANHPAPDSDFMFALYQRVGTIIKQSQISSVDMKAGCAKCGACSALSTFAKLEHHHHHH”, the protein production was “failed”.
In the case of “MGVALAAMCLMSAQAQRRNEIQVPNLNGYTTLKCDFHMHSVFSDGLVWPTVRVDEAYREGLDAISLTEHIEYRPHKKDIIADHNRSYELSQKQAKKLGILLIRGSEITRSMPPGHFNAIFLNDSNPLEQKAYKDAFNEAKKQGAFIFWNHPGWARQQPDSTLWWPEHTQLYNDGCMHGIEVANGGLFMPEAIQWCLDKNLTMIGTSDIHQPIQTDYDFSKGEHRTMTFVFAKERSPEGIREALDNRRTAVYYRELVIGREEILRPFFEKCVDIKEVKRTEKEVTFSVMNATDLVLKLKKTAHDPSLVYFREMTLKPHTQHTISVKFDNGIKGGDCNFEVTNFIVAPDKGLDYTIKL”, the protein production is reported as “not failed”.
For “MGVVHHSVYAVYLEAARVDFLERAGLPYHRVEARGVFFPVVELGLTFRAPARFGEVVEVRTRLAELSSRALLFRYRVEREGVLLAEGFTRHLCQVGERAARIPEDIYRALSVLHLK”, the protein production was “not failed”.
With “MGYRRFLQLVAHEFFHLWNVKRIRPKALEQFDYEAENYTPSLWFSEGATSYYDLLLPLRAGLYGVDSFLEALGKDLSRYLTTPGRKVQPLAESSFDAWVKLYRRDAYSDNQQMSYYLKGQLVCWLLDLEIRNHQPDLEHHHHHH” the protein production was “not failed”.
For “MHEFSTVDGFAEINESLAEMIKYIANEPSVGLYYIQQHIRNAAPNVINLNNNVLEKSRETGLHTEDLEDSIAMVKSMKDCGSPIADEMIGDIKNSLAIMSSKQPRRGVILNSTSPWSRSSSITTRTRGSDNSQDNSESSNYFTSVFMTAKEKASNIKWPQLDFKEQKSEADPNVQSNELKEEEEEDSGKGEHIVETTKFEEFKAGKEASLKAWLGDMDGNVDVGGRVAERI”, the protein production was “not failed”.
For “MHELSISRHIAAPPGKVWDVLANRQEEWWCPRPWWITLIAQERRPGGRSAMVMHGPDGEEMPQEGIFLAWDEGHRFVTTDAVTADFLPAGPFMVGIWEVEPEGEGTRYTASARHWTEEAMREHAEMGFEAGWNACADQLQALCEAD”, the protein production was “failed”.
For “MHEYSVVSSLIALCEEHAKKNQAHKIERVVVGIGERSAMDKSLFVSAFETFREESLVCKDAILDIVDEKVELECKDCSHVFKPNALDYGVCEKCHSKNVIITQGNEMRLLSLEMLAE”, the protein production was “failed”.
For “MHFSKEHINALETRTRAHFINSLSGFKSANLIGTQDRQGNTNLSIVSSVIHLGANPPLMGMIIRPHSVPRHTFENIMQTGLYTINHVNQSIYEQAHQTSARYDKDESEFEATGLTPEYLSDFCAPFVKESRLKYSVKLVEHQHLAINGTEFVIGEIVDVYVDDNAVQTDGFIDLQAIDTVAISGLDCYYTGDKLARLPYAKK”, the protein production was “not failed”.
